Laboratory results published in patent US20240383999A1 (University of Texas, published 2024).

T1: Human recombinant CD5L protein (Sino Biological, Catalog Number 10791-H08H) (human, UniProt O43866 20-347)
T1 construct: Bought protein; also called human CD5L; CD5L-His; not shown: 6xHIS-tag
T1 sequence (looked up): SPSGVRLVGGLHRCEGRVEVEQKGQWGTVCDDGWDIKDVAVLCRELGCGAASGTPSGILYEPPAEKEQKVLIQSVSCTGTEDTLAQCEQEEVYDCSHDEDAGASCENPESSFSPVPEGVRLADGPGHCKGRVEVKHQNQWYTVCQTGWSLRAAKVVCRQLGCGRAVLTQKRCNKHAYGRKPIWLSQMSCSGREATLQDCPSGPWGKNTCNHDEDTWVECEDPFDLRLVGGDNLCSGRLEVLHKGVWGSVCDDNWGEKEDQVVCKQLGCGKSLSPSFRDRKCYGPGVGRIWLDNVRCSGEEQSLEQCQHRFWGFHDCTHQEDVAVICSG


Columns and labels:
[1] = target: T1, Human recombinant CD5L protein (Sino …); test: titration ELISA, human CD5L coated on plate
Protocol: FIG. 11. […] Bound antibody was detected using a secondary antibody against rabbit IgG conjugated with HRP and TMB substrate for detection of A450 nm. EC₅₀ was estimated using GraphPad software by applying a 4-parameter fitting to calculate binding affinity of the antibodies.
Binding constants (EC₅₀) of a panel of monoclonal antibodies were estimated by titration ELISA, and the data were analyzed using the 4-parameter curve fitting with GraphPad Prism program (Table 6).

[2] = target: T1, Human recombinant CD5L protein (Sino …); test: BLI (Octet RED96), antibody on protein A biosensors, CD5L 0.1-200 nM in solution, 1:1 fit
Protocol: All experiments were performed with shaking at 1,000 rpm. Background wavelength shifts were measured from reference biosensors that were loaded only with antibody. ForteBio's data analysis software was used to fit the data to a 1:1 binding model to extract an association rate and dissociation rate.

EC50 [1] [µg/mL] | Kd [2] [nM] | Binder
0.22 | 1.35 | R-34 (antibody, V domains shown) VH: QSVKESGGRLVTPGTPLTLTCTVSGFSLSSSGMSWVRQAPGKGLEWIGLTFPSGSASYASWAKGRFTVSRTSTTVDLNLTSPTTEDTATYFCAHVGATTGRDFWGQGTLVTVSS VL: ELVMTQTASSVSAAVGGTVTISCQSSQNIYNNRWSWYQQKPGQPPKLLIYQASTLASGVPSRFKGSGSGTQFTLTISGVQCDDAATYYCAGGYSGTIFTFGGGTELEIK
0.25 | 28.7 | H-447 (antibody, V domains shown) VH: EVQLVQSGGGLVQPGGSLRLSCAASGFTVSSNYMSWVRQAPGKGLEWVSVIYSGGSTYYADSVKGRFTISRHNSKNTLYLQMNSLRAEDTAVYYCARESAVAGWGMDVWGKGTTVTVSS VL: not shown
0.183 | 2.18 | R-3 (antibody, V domains shown) VH: QSLKESGGRLVKPDETLTITCTASGIDLTSGTVGWFRQAPGKGLEWIGIIRGSGSTYYATWAKGRFTISKTSTTVDLKLTSPTTEDTATYLCARAFPGYNTFFNFWGQGTLVTISS VL: ELDLTQTPSSVEAAVGGTVTIKCQASESIGNALAWYQQKPGQPPKLLIWKASNLESGVPPRFKGSGSGTEFTLTISDLECADAATYYCQRYYFNGVSVEIVFGGGTEVVVKG
0.169 | 0.78 | R-35 (antibody, V domains shown, also called anti-CD5L antibody R-35; CD5L antibody (R-35)) VH: AAVKESGGRLVTPGTPLTLTCTVSGIDLSDYYMTWVRQAPGKGLEYIGIIYASGNAYFASWAKGRFTISRTSSTTVDLNVASPTTEDTATYFCARNIGGSSNLWGQGTLVTVSS VL: ELDMTQTPASVSEPVGGTVTIKCQASERIYNNLAWYQQKPGQPPKLLFYSASTLASGVPSRFKGSGSGTEFTLTISDLECADAAIYYCQCTGYGTTYGLVFGGGTEVEI
0.0788 | 2.97 | R-45 (antibody, V domains shown) VH: QSVKESGGRLVTPGTPLTLTCTVSGFSINDFHMCWVRQAPGKGLEYIGMIGTGGSAYYATWTKGRFTISRTSTTVDLKITSPTTEDTATYFCARRDWSDGGYSLLWGQGTLVTVSS VL: ELDLTQTPASVSEPVGGTVTIKCQASQSIRTYLNWYQQKPGQPPKLLIYSASTLASGIPSRFKGSGSGTQFTLTISDLECADAATYYCQQGYYWSDVENTFGGGTEVEIN
0.116 | 1.72 | R-13 (antibody, V domains shown) VH: QSLEESGGRLVTPGTPLTLTCTVSGFSLSSYPMSWVRQAPGKGLEWIGIITSGGSIFYATWANGRFTISKTSTTVDLKITSPTTEDTATYFCARGYSSGTMMSSNLWGQGTLVTVSS VL: ELVLTQTPASVSEPVGGTVTIKCQASESISTYLSWYQQKPGQRPKLLIYRASTLESGVPSRFKGSGSGTEYTLTISGVQCADAATYYCQQGYTYKNVDNAFGGGTEVVVK
0.21 | 1.74 | R-40 (antibody, V domains shown) VH: QSVKESGGRLVKPDETLTITCTVSGIDLSRYSIQWVRQAPGGGLQWIGVMSIGSSAYYANWAKGRFTISKTSSTTVDLTMTSLTAADTATYFCARSNLYRGAFDPWGPGTLVTISS VL: ELVMTQTPASVEAAVGGTVTIKCQSSESVYKNNYLSWYQLKPGQPPKLLFYSASTLASRVPSRFSGSGSGTQFTLTISDLECDDAATYYCAGYYGSSSVDRYTFGGGTEVEIK
0.19 | 1.56 | R-18 (antibody, V domains shown) VH: QSVKESGGRLVTPGTPLTLTCTVSGFSLSNYAMSWVRQAPGKGLEWIGIIVTSGSTYYASWAKGRFTISKTSTTVDLKMTSLTAADTATYFCARHAYSIGSSLWGQGTLVTISS VL: ELDLTQTPPSASEPVGGTVTIKCQASESISVRLAWYQQKPGQPPKLLIYKASNLPSGVPSRFKGSGSGTEFTLTISDLECDDAATYYCRNYYDISNNGAGFGGGTEVEIK
